# Test results: article PMC5525146
# Target: Actin from rabbit muscle (rabbit) (UniProt P68135)
# Assay: co-sedimentation
substance,measurement,value
Palld-Ig3 K38/51A double mutant (domain or fragment),percent of protein co-sedimented with F-actin at saturation,20 to 22%
